The supplement of paper PMC7877785
± gives the uncertainty stated by the source.

Experiment: self-splicing fitness, log relative to wild type (ln ratio); higher = more splicing; Tetrahymena group I intron in knt gene, E. coli kanamycin selection, DiMSum; sequences stand for … in CUCUCU…GGAGGGAAAAGUUAUCAGGCAUGCACCUGGUAGCUAGUCUUUAAACCAAUAGAUUGCAUCGGUUUAAAAGGCAAGACCGUCAAAUUGCGGGAAAGGGGUCAACAGCCGUUCAGUACCAAGUCUCAGGGGAAACUUUGAGAUGGCCUUGCAAAGGGUAUGGUAAUAAGCUGACGGACAUGGUCCUAACCACGCAGCCAAGUCCUAAGUCAACAGAUCUUCUGUUGAUAUGGAUGCAGUUCACAGACUAAAUGUCGGUCGGGGAAGAUGUAUUCUUCUCAUAAGAUAUAGUCGGACCUCUCCUUAAUGGGAGCUAGCGGAUGAAGUGAUGCAACACUGGAGCCGCUGGGAACUAAUUUGUAUGCGAAAGUAUAUUGAUUAGUUUUGGAGUACUCGUGGUCG
How it was run: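 Six replicate transformations of E. coli BL21(DE3) with a pET-22b(+) library were grown overnight at 37°C or 30°C. The library randomised all eight P1ex-region intron nucleotides, the intron lying in the knt kanamycin-resistance gene, and plates were LB agar with or without 25 μg/mL kanamycin plus 100 μg/mL carbenicillin, 50 μM IPTG and 0.2% rhamnose. Pooled colonies were amplicon-sequenced on an Illumina HiSeq 2500, and fitness is the DiMSum error-weighted combination of wild-type-normalised replicate fold changes, kanamycin versus none.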

Question: For UUCCAGCAAUAUUACGGGUG, which “self-splicing fitness (ln)” value (30 °C) is on record?
Answer: -0.109 ± 0.058

Question: What about the “self-splicing fitness (ln)” value (37 °C) of the same sequence?
Answer: -0.15 ± 0.076

Question: For UUCCAGCAAUAUUACGUACA, which “self-splicing fitness (ln)” value (30 °C) is on record?
Answer: -1.11 ± 0.1

Question: And the “self-splicing fitness (ln)” value (37 °C)?
Answer: -0.862 ± 0.12

Question: Which results are given for UUCCAGCAAUAUUACGUCAG?
Answer: self-splicing fitness (ln) (30 °C): -1.75 ± 0.077; self-splicing fitness (ln) (37 °C): -1.19 ± 0.097

Question: With UUCCAGCAAUAUUACGUCCG as the sequence, how does the “self-splicing fitness (ln)” value (30 °C) read?
Answer: -2.28 ± 0.18

Question: And the “self-splicing fitness (ln)” value (37 °C)?
Answer: 0.24 ± 0.2

Question: With UUCCAGCAAUAUUACGUCUG as the sequence, how does the “self-splicing fitness (ln)” value (30 °C) read?
Answer: -2.71 ± 0.15

Question: What about the “self-splicing fitness (ln)” value (37 °C) of the same sequence?
Answer: -2.28 ± 0.24

Question: Which results are given for UUCCAGCAAUAUUACGUCUU?
Answer: self-splicing fitness (ln) (30 °C): -2.64 ± 0.15; self-splicing fitness (ln) (37 °C): -2.27 ± 0.2

Question: Which “self-splicing fitness (ln)” value (30 °C) does the source give for UUCCAGCAAUAUUACGUGGA here?
Answer: -3.28 ± 0.24

Question: What about the “self-splicing fitness (ln)” value (37 °C) of the same sequence?
Answer: -2.95 ± 0.26

Question: Which results are given for UUCCAGCAAUAUUACGUUUA?
Answer: self-splicing fitness (ln) (30 °C): -0.628 ± 0.083; self-splicing fitness (ln) (37 °C): -0.59 ± 0.075

Question: Which “self-splicing fitness (ln)” value (30 °C) does the source give for UUCGAGCAAUAUUACGACCA here?
Answer: -2.28 ± 0.43

Question: What about the “self-splicing fitness (ln)” value (37 °C) of the same sequence?
Answer: -1.33 ± 0.28

Question: Which results are given for UUCGAGCAAUAUUACGACUA?
Answer: self-splicing fitness (ln) (30 °C): 0.544 ± 0.39; self-splicing fitness (ln) (37 °C): -1.15 ± 0.24

Question: For UUCGAGCAAUAUUACGAGGU, which “self-splicing fitness (ln)” value (30 °C) is on record?
Answer: -2.94 ± 0.48

Question: And the “self-splicing fitness (ln)” value (37 °C)?
Answer: -1.52 ± 0.43

Question: What does the source list for UUCGAGCAAUAUUACGCAUG?
Answer: self-splicing fitness (ln) (30 °C): -1.2 ± 0.23; self-splicing fitness (ln) (37 °C): -2.21 ± 0.3

Question: With UUCGAGCAAUAUUACGCUCC as the sequence, how does the “self-splicing fitness (ln)” value (30 °C) read?
Answer: -3.27 ± 0.41

Question: For UUCGAGCAAUAUUACGCUGC, which “self-splicing fitness (ln)” value (30 °C) is on record?
Answer: -3.44 ± 0.44

Question: With UUCGAGCAAUAUUACGGCCC as the sequence, how does the “self-splicing fitness (ln)” value (30 °C) read?
Answer: -1.75 ± 0.4

Question: With UUCGAGCAAUAUUACGGGAG as the sequence, how does the “self-splicing fitness (ln)” value (30 °C) read?
Answer: -3.53 ± 0.2

Question: And the “self-splicing fitness (ln)” value (37 °C)?
Answer: -2.84 ± 0.22

Question: With UUCGAGCAAUAUUACGGGGU as the sequence, how does the “self-splicing fitness (ln)” value (30 °C) read?
Answer: -2.88 ± 0.35

Question: For UUCGAGCAAUAUUACGGUAC, which “self-splicing fitness (ln)” value (30 °C) is on record?
Answer: -3.39 ± 0.27

Question: And the “self-splicing fitness (ln)” value (37 °C)?
Answer: -2.62 ± 0.44

Question: With UUCGAGCAAUAUUACGGUUG as the sequence, how does the “self-splicing fitness (ln)” value (30 °C) read?
Answer: -3.78 ± 0.19

Question: What about the “self-splicing fitness (ln)” value (37 °C) of the same sequence?
Answer: -2.47 ± 0.16

Question: Which results are given for UUCGAGCAAUAUUACGUGCA?
Answer: self-splicing fitness (ln) (30 °C): -2.18 ± 0.19; self-splicing fitness (ln) (37 °C): -1.4 ± 0.16

Question: Which “self-splicing fitness (ln)” value (30 °C) does the source give for UUCGAGCAAUAUUACGUGCG here?
Answer: -3.18 ± 0.23

Question: And the “self-splicing fitness (ln)” value (37 °C)?
Answer: -2.18 ± 0.26

Question: Which “self-splicing fitness (ln)” value (30 °C) does the source give for UUCGAGCAAUAUUACGUGUG here?
Answer: -2.52 ± 0.13

Question: What about the “self-splicing fitness (ln)” value (37 °C) of the same sequence?
Answer: -1.59 ± 0.12

Question: With UUCGAGCAAUAUUACGUUAG as the sequence, how does the “self-splicing fitness (ln)” value (30 °C) read?
Answer: -4.22 ± 0.42

Question: What about the “self-splicing fitness (ln)” value (37 °C) of the same sequence?
Answer: -3.37 ± 0.3

Question: With UUCGAGCAAUAUUACGUUGA as the sequence, how does the “self-splicing fitness (ln)” value (30 °C) read?
Answer: -2.77 ± 0.26

Question: And the “self-splicing fitness (ln)” value (37 °C)?
Answer: -2 ± 0.21

Question: For UUCUAGCAAUAUUACGAACC, which “self-splicing fitness (ln)” value (37 °C) is on record?
Answer: -1.8 ± 0.33

Question: With UUCUAGCAAUAUUACGAACG as the sequence, how does the “self-splicing fitness (ln)” value (30 °C) read?
Answer: -3.61 ± 0.36

Question: What about the “self-splicing fitness (ln)” value (37 °C) of the same sequence?
Answer: -1.15 ± 0.27

Question: With UUCUAGCAAUAUUACGACGU as the sequence, how does the “self-splicing fitness (ln)” value (30 °C) read?
Answer: -1.89 ± 0.12

Question: What about the “self-splicing fitness (ln)” value (37 °C) of the same sequence?
Answer: -1.12 ± 0.1

Question: For UUCUAGCAAUAUUACGACUC, which “self-splicing fitness (ln)” value (30 °C) is on record?
Answer: -3.11 ± 0.31

Question: And the “self-splicing fitness (ln)” value (37 °C)?
Answer: -0.392 ± 0.14

Question: Which “self-splicing fitness (ln)” value (30 °C) does the source give for UUCUAGCAAUAUUACGAGAA here?
Answer: -2.54 ± 0.29

Question: What about the “self-splicing fitness (ln)” value (37 °C) of the same sequence?
Answer: -2.11 ± 0.29

Question: For UUCUAGCAAUAUUACGAGCA, which “self-splicing fitness (ln)” value (30 °C) is on record?
Answer: -0.992 ± 0.089

Question: What about the “self-splicing fitness (ln)” value (37 °C) of the same sequence?
Answer: -0.124 ± 0.085

Question: For UUCUAGCAAUAUUACGAUAG, which “self-splicing fitness (ln)” value (37 °C) is on record?
Answer: -2.05 ± 0.36

Question: With UUCUAGCAAUAUUACGAUCU as the sequence, how does the “self-splicing fitness (ln)” value (30 °C) read?
Answer: -2.84 ± 0.34

Question: What about the “self-splicing fitness (ln)” value (37 °C) of the same sequence?
Answer: -2.52 ± 0.27

Question: For UUCUAGCAAUAUUACGAUGC, which “self-splicing fitness (ln)” value (30 °C) is on record?
Answer: -2.12 ± 0.3

Question: What about the “self-splicing fitness (ln)” value (37 °C) of the same sequence?
Answer: -2.86 ± 0.38

Question: What does the source list for UUCUAGCAAUAUUACGAUUG?
Answer: self-splicing fitness (ln) (30 °C): -3.24 ± 0.31; self-splicing fitness (ln) (37 °C): -1.94 ± 0.21

Question: For UUCUAGCAAUAUUACGCAAU, which “self-splicing fitness (ln)” value (30 °C) is on record?
Answer: -2.27 ± 0.22

Question: And the “self-splicing fitness (ln)” value (37 °C)?
Answer: -2.21 ± 0.32

Question: Which “self-splicing fitness (ln)” value (30 °C) does the source give for UUCUAGCAAUAUUACGCACC here?
Answer: -2.54 ± 0.18

Question: And the “self-splicing fitness (ln)” value (37 °C)?
Answer: -1.94 ± 0.23

Question: With UUCUAGCAAUAUUACGCAGA as the sequence, how does the “self-splicing fitness (ln)” value (30 °C) read?
Answer: -2.04 ± 0.32

Question: And the “self-splicing fitness (ln)” value (37 °C)?
Answer: -1.1 ± 0.23

Question: What does the source list for UUCUAGCAAUAUUACGCGUA?
Answer: self-splicing fitness (ln) (30 °C): -1.15 ± 0.25; self-splicing fitness (ln) (37 °C): -0.575 ± 0.21

Question: What does the source list for UUCUAGCAAUAUUACGCGUU?
Answer: self-splicing fitness (ln) (30 °C): -2.47 ± 0.15; self-splicing fitness (ln) (37 °C): -1.9 ± 0.13

Question: Which “self-splicing fitness (ln)” value (30 °C) does the source give for UUCUAGCAAUAUUACGCUCU here?
Answer: -1.9 ± 0.15

Question: What about the “self-splicing fitness (ln)” value (37 °C) of the same sequence?
Answer: -1.77 ± 0.15

Question: Which results are given for UUCUAGCAAUAUUACGCUUG?
Answer: self-splicing fitness (ln) (30 °C): -4.24 ± 0.33; self-splicing fitness (ln) (37 °C): -2.67 ± 0.22

Question: Which “self-splicing fitness (ln)” value (30 °C) does the source give for UUCUAGCAAUAUUACGGAGG here?
Answer: -3.17 ± 0.34

Question: Which “self-splicing fitness (ln)” value (30 °C) does the source give for UUCUAGCAAUAUUACGGAUC here?
Answer: -2.3 ± 0.21

Question: And the “self-splicing fitness (ln)” value (37 °C)?
Answer: -0.989 ± 0.31

Question: For UUCUAGCAAUAUUACGGCGA, which “self-splicing fitness (ln)” value (30 °C) is on record?
Answer: -0.698 ± 0.14

Question: What about the “self-splicing fitness (ln)” value (37 °C) of the same sequence?
Answer: 0.493 ± 0.18

Question: For UUCUAGCAAUAUUACGGGAU, which “self-splicing fitness (ln)” value (30 °C) is on record?
Answer: -3.72 ± 0.29

Question: And the “self-splicing fitness (ln)” value (37 °C)?
Answer: -2.37 ± 0.3

Question: What does the source list for UUCUAGCAAUAUUACGGUCG?
Answer: self-splicing fitness (ln) (30 °C): -0.638 ± 0.067; self-splicing fitness (ln) (37 °C): 0.00892 ± 0.09

Question: With UUCUAGCAAUAUUACGGUCU as the sequence, how does the “self-splicing fitness (ln)” value (37 °C) read?
Answer: -3.7 ± 0.36

Question: With UUCUAGCAAUAUUACGGUUU as the sequence, how does the “self-splicing fitness (ln)” value (30 °C) read?
Answer: -2.05 ± 0.11

Question: And the “self-splicing fitness (ln)” value (37 °C)?
Answer: -1.52 ± 0.12

Question: What does the source list for UUCUAGCAAUAUUACGUAAC?
Answer: self-splicing fitness (ln) (30 °C): -3.19 ± 0.33; self-splicing fitness (ln) (37 °C): -1.32 ± 0.27

Question: For UUCUAGCAAUAUUACGUAGU, which “self-splicing fitness (ln)” value (37 °C) is on record?
Answer: -1.6 ± 0.24
